Positions count from the first letter of the chain named. Read-outs that look alike come from different tables or passages of the source.
Experiments:
[1] = target: T1, human PD-1 expressed on cells (HuT78/PD-1, NK92MI/PD-1) (human, UniProt Q15116 25-288); assay: cell-based or functional assay
[2] = target: T1, human PD-1 expressed on cells …; assay: cell-based or functional assay; remark: listed apart in the source
[3] = target: P3Z chimeric PD-1 receptor on HuT78/P3Z cells (human); assay: cell-based or functional assay
Sequence of P3Z chimeric PD-1 receptor on HuT78/P3Z cells (human) (chain, as listed by the source mutant limits assumed): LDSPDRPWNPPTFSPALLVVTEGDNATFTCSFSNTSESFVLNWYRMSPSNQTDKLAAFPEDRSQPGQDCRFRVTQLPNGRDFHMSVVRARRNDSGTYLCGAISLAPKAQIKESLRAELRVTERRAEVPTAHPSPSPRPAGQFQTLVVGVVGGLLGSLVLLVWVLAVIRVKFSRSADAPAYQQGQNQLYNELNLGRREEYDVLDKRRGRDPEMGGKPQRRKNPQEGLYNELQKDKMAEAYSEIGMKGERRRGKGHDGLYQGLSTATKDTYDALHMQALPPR

PD-1-EC/Fc = target: T2, PD-1-EC/Fc (human); assay: SPR (BIAcore T-200), mAb captured on anti-mouse Fc chip, PD-1/Fc injected
T2 construct: also called PD-1/Fc
T2 sequence (Q15116 21-168): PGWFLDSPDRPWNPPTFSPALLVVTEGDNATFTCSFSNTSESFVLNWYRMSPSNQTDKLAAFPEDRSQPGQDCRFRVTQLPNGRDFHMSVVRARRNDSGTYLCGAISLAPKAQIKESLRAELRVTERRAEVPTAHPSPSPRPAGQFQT
Description: Anti-mouse Fc CM5 biosensor chip (GE Healthcare) was generated using a standard primary amine coupling protocol. PD-1 mAbs at 0.3 µg/ml were captured on anti-mouse Fc surface for 1 min at 10 µl/min. […] Association rates (Kₐ or kₒₙ) and dissociation rates (Kd or koff) were calculated using the one-to-one Langmuir binding model (BIA Evaluation Software, GE Life Sciences). The equilibrium dissociation constant (KD) was calculated as the ratio koff/kₒₙ.

[4] = target: T1, human PD-1 expressed on cells …; assay: FACS on PD-1-expressing cells

T1 sequence (Q15116 25-288): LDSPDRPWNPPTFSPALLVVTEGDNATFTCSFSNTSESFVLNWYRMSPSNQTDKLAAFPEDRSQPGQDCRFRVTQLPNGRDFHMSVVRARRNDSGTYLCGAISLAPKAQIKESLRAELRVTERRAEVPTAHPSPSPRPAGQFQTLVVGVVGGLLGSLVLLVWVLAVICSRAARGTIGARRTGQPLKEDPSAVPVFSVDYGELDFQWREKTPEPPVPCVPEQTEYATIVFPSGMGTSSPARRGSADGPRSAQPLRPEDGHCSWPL

B1: hu317-1 (humanized, human IgG2/kappa) (antibody, V domains shown, not shown: a dimerising Fc or GST)
VH: QVQLQESGPGLVKPSETLSLTCTVSGFSLTSYGVHWIRQPPGKGLEWLGVIWAGGSTNYNPSLKSRLTISKDNSKSQVSLKMSSVTAADTAVYYCARAYGNYWYIDVWGQGTTVTVSS
VL: DIVMTQSPDSLAVSLGERATINCKASQSVSNDVAWYQQKPGQPPKLLINYAFHRFTGVPDRFSGSGYGTDFTLTISSLQAEDVAVYYCHQAYSSPYTFGGGTKLEIKR
- Assay-1, IL-2 release HuT78/PD-1 + HEK293/OS8/PD-L1: Baseline [1]: 91 pg/mL

B2: hu326-1 (humanized, human IgG2/kappa) (antibody, V domains shown, not shown: a dimerising Fc or GST)
VH: QVQLVQSGSELKKPGASVKVSCKASGYTFTNYGMNWVRQAPGQGLEWMGWINNNNGEPTYAQGFRGRFVFSLDTSASTAYLQISSLKTEDTAVYFCARDVMDYWGQGTTVTVSS
VL: DIVLTQSPASLAVSPGQRATITCRASESVDNYGYSFMHWYQQKPGQPPKLLIYRASNLESGVPARFSGSGSRTDFTLTINPVEANDTANYYCQQSKEYPTFGGGTKVEIKR
- Assay-1, IL-2 release HuT78/PD-1 + HEK293/OS8/PD-L1: Baseline [2]: 283 pg/mL

B3: murine mAb 317 (antibody, V domains shown)
VH: QVQLKESGPGLVAPSKNLSITCTVSGFSLTSYGVHWIRQPPGKGLEWLGVIWAGGSTNYNSALMSRLSISKDNSRSQVFLRMNSLQTDDTAMYYCARAYGNYWYIDVWGAGTTVTVSS
VL: DIVMTQTPKFLLVSAGDRVTITCKASQSVSNDVAWYQQKPGQSPKLLINYAFHRFTGVPDRFTGSGYGTDFIFTISTVQAEDLAVYFCHQAYSSPYTFGGGTKLEMK
- Assay-1, IL-2 release HuT78/PD-1 + HEK293/OS8/PD-L1: Baseline [1]: 98 pg/mL
- Inhibition of IL-2 secretion, HuT78/P3Z + HEK293/PD-L1: IC50 [3]: 0.083 µg/mL

B4: ch317 (chimeric antibody from mu317, human IgG2/kappa) (antibody, V domains shown, not shown: a dimerising Fc or GST)
VH: B3 VH
VL: DIVMTQTPKFLLVSAGDRVTITCKASQSVSNDVAWYQQKPGQSPKLLINYAFHRFTGVPDRFTGSGYGTDFIFTISTVQAEDLAVYFCHQAYSSPYTFGGGTKLEMKR
- Assay-1, IL-2 release HuT78/PD-1 + HEK293/OS8/PD-L1: Baseline [1]: 82 pg/mL

B5: murine mAb 326 (antibody, V domains shown)
VH: QIQLVQSGPELKKPGETVKISCKASGYTFTNYGMNWVKQAPGKGLKWMGWINNNNGEPTYAEEFKGRFAFSLETSASTAYLQINNLKNEDTATYFCARDVMDYWGQGTSVTVSS
VL: DIVLTQSPASLAVSLGQRATISCRASESVDNYGYSFMHWYQQKPGQPPQLLIYRASNLESGIPARFSGSGSRTGFTLTINPVEADDVATYYCQQSKEYPTFGGGTKLEVK
notes: Murine hybridoma IgG; also called mu326
- Assay-1, IL-2 release HuT78/PD-1 + HEK293/OS8/PD-L1: Baseline [2]: 242 pg/mL
- Kd (PD-1-EC/Fc): 0.324 nM
- koff (PD-1-EC/Fc): 7.79e-05 s⁻¹
- kon (PD-1-EC/Fc): 240000 M⁻¹ s⁻¹
- Inhibition of IL-2 secretion, HuT78/P3Z + HEK293/PD-L1: IC50 [3]: 0.039 µg/mL

B6: ch326 (chimeric antibody from mu326, human IgG2/kappa) (antibody, V domains shown)
VH: B5 VH
VL: B2 VL with P15L, T22S, K49Q, V62I, D74G, N85D, T87V, N89T, V107L, I109V
notes: domain: human Ig kappa C-region; not shown: human IgG2 constant region
- Assay-1, IL-2 release HuT78/PD-1 + HEK293/OS8/PD-L1: Baseline [2]: 250 pg/mL
- EC50 [4]: 0.72 µg/mL

From patent US20230303689A1 (published 2023)
